Target: T1, human EGFR.His antigen (Acro, Cat #EGR-H522a) (human, UniProt P00533 25-645)
T1 construct: extracellular domain; Bought protein; also called EGFR his tag protein; full-length EGFR extracellular domain protein; not shown: His tag
Test: SPR, human EGFR.His

B1: E005.1 (VHH)
VHH: QVQLVESGGGLVKPGGSLRLSCAASGFAFSDYTMRWHRQAAGKELELVSYITSAGDIIKYANSVRGRFTISRDNAKNTLYLQMNSLRAEDTAVYRCNALVSASVRASDYWGQGTLVTVSS
notes: Humanized VHH; also called humanized variant of E005
Kd: 3.3 nM
koff: 3.5e-05 s⁻¹
kon: 11000 M⁻¹ s⁻¹

B2: E005.4 (VHH)
VHH: QVQLVESGGGLVKPGGSLRLSCAASGFAFSDYTMRWHRQAPGKELELVSYITSAGDIIKYANSVRGRFTISRDNAKNSLYLQMNSLRAEDTAVYRCNALVSASVRASDYWGQGTLVTVSS
notes: as for B1
Kd: 4.8 nM
koff: 9.6e-06 s⁻¹
kon: 2000 M⁻¹ s⁻¹

B3: E005.8 (VHH)
VHH: QVQLVESGGGLVKPGGSLRLSCEASGFAFSDYTMRWHRQAAGKELELVAYITSAGDIIKYANSVRGRFTISRDNAKNTLYLQMNSLRAEDTAVYRCNALVSASVRASDYWGQGTLVTVSS
notes: as for B1
Kd: 2.1 nM
koff: 2.7e-05 s⁻¹
kon: 13000 M⁻¹ s⁻¹

B4: E005.7 (VHH)
VHH: QVQLVESGGGLVKPGGSLRLSCAASGFAFSDYTMRWHRQAPGKELELVAYITSAGDIIKYANSVRGRFTISRDNAKNSLYLQMNSLRAEDTAVYRCNALVSASVRASDYWGQGTLVTVSS
notes: as for B1
Kd: 0.71 nM
koff: 2.5e-06 s⁻¹
kon: 3500 M⁻¹ s⁻¹

B5: E005.5 (VHH)
VHH: QVQLVESGGGLVKPGGSLRLSCAASGFAFSDYTMRWHRQAPGKELELVAYITSAGDIIKYANSVRGRFTISRDNAKNTLYLQMNSLRAEDTAVYRCNALVSASVRASDYWGQGTLVTVSS
notes: as for B1
Kd: 0.74 nM
koff: 1.1e-05 s⁻¹
kon: 15000 M⁻¹ s⁻¹

B6: E005.6 (VHH)
VHH: QVQLVESGGGLVKPGGSLRLSCAASGFAFSDYTMRWHRQAAGKELELVAYISSAGDIIKYANSVRGRFTISRDNAKNTLYLQMNSLRAEDTAVYRCNALVSASVRASDYWGQGTLVTVSS
notes: as for B1
Kd: 2.5 nM
koff: 4.1e-05 s⁻¹
kon: 16000 M⁻¹ s⁻¹

B7: E005.2 (VHH)
VHH: QVQLVESGGGLVKPGGSLRLSCAASGFAFSDYTMRWHRQAAGKELELVAYITSAGDIIKYANSVRGRFTISRDNAKNSLYLQMNSLRAEDTAVYRCNALVSASVRASDYWGQGTLVTVSS
notes: as for B1
Kd: 1.2 nM
koff: 2.1e-05 s⁻¹
kon: 18000 M⁻¹ s⁻¹

B8: E005.3 (VHH)
VHH: QVQLVESGGGLVKPGGSLRLSCAASGFAFSDYTMRWHRQAAGKELELVAYITSAGDIIKYANSVRGRFTISRDNAKNTLYLQMNSLRAEDTAVYRCNALVSASVRASDYWGQGTLVTVSS
notes: as for B1
Kd: 2.7 nM
koff: 1.7e-05 s⁻¹
kon: 6100 M⁻¹ s⁻¹

B9: E006.1 (VHH)
VHH: EVQLVESGGGLVQPGGSLRLSCAASGFTFDTYTTSWERQAPGKEREMVAVLATTGGKPYYVESVKGRFTISRDNSKNTVYLQMNSLRAEDTAVYYCKATSRSPVNPHNYSGQGTLVTVSS
notes: Humanized VHH; also called humanized variant of E006
Kd: 39 nM
koff: 0.00079 s⁻¹
kon: 20000 M⁻¹ s⁻¹

B10: E006.5 (VHH)
VHH: EVQLVESGGGLVQPGGSLRLSCAASGFTFDTYTTSWERQAPGKEREMVAVLATTGGKPYYVESVKGRFTISRDASENAVYLQMNNLRAEDTAVYYCKATSRSPVNPHNYSGQGTLVTVSS
notes: as for B9
Kd: 13 nM
koff: 0.00031 s⁻¹
kon: 24000 M⁻¹ s⁻¹

B11: E006.3 (VHH)
VHH: EVQLVESGGGLVQPGGSLRLSCAASGFTFDTYTTSWERQAPGKEREMVAVLATTGGKPYYVESVKGRFTISRDASENTVYLQMNSLRAEDTAVYYCKATSRSPVNPHNYSGQGTLVTVSS
notes: as for B9
Kd: 18 nM
koff: 0.0004 s⁻¹
kon: 22000 M⁻¹ s⁻¹

B12: E006.6 (VHH)
VHH: EVQLVESGGGLVQPGGSLRLSCAASGFTFDTYTTSWERQAPGKEREMVAVLATTGGKPYYVESVKGRFTISRDASENAVTLQMNNLRAEDTAVYYCKATSRSPVNPHNYSGQGTLVTVSS
notes: as for B9
Kd: 11 nM
koff: 0.00032 s⁻¹
kon: 29000 M⁻¹ s⁻¹

B13: E006.4 (VHH)
VHH: EVQLVESGGGLVQPGGSLRLSCAASGFTFDTYTTSWERQAPGKEREMVAVLATTGGKPYYVESVKGRFTISRDASENAVYLQMNSLRAEDTAVYYCKATSRSPVNPHNYSGQGTLVTVSS
notes: as for B9
Kd: 13 nM
koff: 0.00032 s⁻¹
kon: 25000 M⁻¹ s⁻¹

B14: E006.2 (VHH)
VHH: EVQLVESGGGLVQPGGSLRLSCAASGFTFDTYTTSWERQAPGKEREMVAVLATTGGKPYYVESVKGRFTISRDASKNTVYLQMNSLRAEDTAVYYCKATSRSPVNPHNYSGQGTLVTVSS
notes: as for B9
Kd: 41 nM
koff: 0.00072 s⁻¹
kon: 17000 M⁻¹ s⁻¹

B15: E006.7 (VHH)
VHH: EVQLVESGGGLVQPGGSLRLSCAASGFTFDTYTTSWERQAPGKEREMVSVLATTGGKPYYVESVKGRFTISRDASENAVYLQMNSLRAEDTAVYYCKATSRSPVNPHNYSGQGTLVTVSS
notes: as for B9
Kd: 14 nM
koff: 0.00033 s⁻¹
kon: 24000 M⁻¹ s⁻¹

B16: E008.1 (VHH)
VHH: EVQLVESGGGLVQPGGSLRLSCAASGLPLLDYAIGWFRQAPGKEREAVSAISISEGSTYYTDSVRGRFTISRDNSKNTVYLQMNSLRAEDTAVYYCAADKTDIGFWLLVGGAGGGEVRYEYWGQGTQVTVSS
notes: Humanized VHH; also called humanized variant of E008
Kd: 18 nM
koff: 0.0087 s⁻¹
kon: 480000 M⁻¹ s⁻¹

B17: E008.2 (VHH)
VHH: EVQLVESGGGLVQPGGSLRLSCAASGLPLLDYAIGWFRQAPGKEREAVSAISISEGSTYYTDSVRGRFTISRDNSKNKLYLQMNSLRAEDTAVYYCAADKTDIGFWLLVGGAGGGEVRYEYWGQGTQVTVSS
notes: as for B16
Kd: 40 nM
koff: 0.021 s⁻¹
kon: 540000 M⁻¹ s⁻¹

B18: E008.6 (VHH)
VHH: EVQLVESGGGLVQPGGSLRLSCAASGLPLLDYAIGWFRQAPGKEREAVSAISISEGSTYYTDSVRGRFTISRDNNKNKVYLQMNSLRAEDTAVYYCAADKTDIGFWLLVGGAGGGEVRYEYWGQGTQVTVSS
notes: as for B16
Kd: 32 nM
koff: 0.013 s⁻¹
kon: 430000 M⁻¹ s⁻¹

B19: E008.5 (VHH)
VHH: EVQLVESGGGLVQPGGSLRLSCAASGLPLLDYAIGWFRQAPGKEREAVSAISISEGSTYYTDSVRGRFTISRDNSKNKVYLQMNSLRAEDTAVYYCAADKTDIGFWLLVGGAGGGEVRYEYWGQGTQVTVSS
notes: as for B16
Kd: 24 nM
koff: 0.012 s⁻¹
kon: 510000 M⁻¹ s⁻¹

B20: E008.4 (VHH)
VHH: EVQLVESGGGLVQPGGSLRLSCAASGLPLLDYAIGWFRQAPGKEREAVSAISISEGSTYYTDSVRGRFTISRDNNKNTVYLQMNSLRAEDTAVYYCAADKTDIGFWLLVGGAGGGEVRYEYWGQGTQVTVSS
notes: as for B16
Kd: 21 nM
koff: 0.0093 s⁻¹
kon: 450000 M⁻¹ s⁻¹

B21: E008.3 (VHH)
VHH: EVQLVESGGGLVQPGGSLRLSCAASGLPLLDYAIGWFRQAPGKEREAVSAISISEGSTYYTDSVRGRFTISRDNSKNTVYLRMNSLRAEDTAVYYCAADKTDIGFWLLVGGAGGGEVRYEYWGQGTQVTVSS
notes: as for B16
Kd: 5.8 nM
koff: 0.028 s⁻¹
kon: 4.9e+06 M⁻¹ s⁻¹

B22: E008.10 (VHH)
VHH: EVQLVESGGGLVQPGGSLRLSCASSGLPLLDYAIGWFRQAPGKEREAVSAISISEGSTYYTDSVRGRFTISRDNSKNKVYLRMNSLRAEDTAVYYCAADKTDIGFWLLVGGAGGGEVRYEYWGQGTQVTVSS
notes: as for B16
Kd: 82 nM
koff: 0.029 s⁻¹
kon: 360000 M⁻¹ s⁻¹

B23: E008.9 (VHH)
VHH: EVQLVESGGGLVQPGGSLRLSCAASGLPLLDYAIGWFRQAPGKELEAVSAISISEGSTYYTDSVRGRFTISRDNNKNKVYLQMNSLRAEDTAVYYCAADKTDIGFWLLVGGAGGGEVRYEYWGQGTQVTVSS
notes: as for B16
Kd: 25 nM
koff: 0.012 s⁻¹
kon: 490000 M⁻¹ s⁻¹

B24: E002.1 (VHH)
VHH: EVQLVESGGGLVQPGGSLRLSCAASGFTFSDYAVSWYRQAPGKEREFVSRITGTGETSRYEDSVKGRFTISRDNSKNTAYLQMNSLRAEDTAVYYCSIYHPPRDYWGQGTQVTVSS
notes: Humanized VHH; also called humanized variant of E002
Kd: 5 nM
koff: 0.00039 s⁻¹
kon: 78000 M⁻¹ s⁻¹

B25: E002.6 (VHH)
VHH: EVQLVESGGGLVQPGGSLRLSCAASGFTFSDYAVSWYRQAPGKEREFVARITGTGETSRYEDSVKGRFAISRDNSKNTAYLQMNSLRAEDTAVYYCSIYHPPRDYWGQGTQVTVSS
notes: as for B24
Kd: 9.4 nM
koff: 0.00038 s⁻¹
kon: 40000 M⁻¹ s⁻¹

B26: E002.2 (VHH)
VHH: EVQLVESGGGLVQPGGSLRLSCAASGFTFSDYAVSWYRQAPGKEREFVSRITGTGETSRYEDSVKGRFTISRDNVKNTAYLQMNSLRAEDTAVYYCSIYHPPRDYWGQGTQVTVSS
notes: as for B24
Kd: 5.1 nM
koff: 0.00068 s⁻¹
kon: 130000 M⁻¹ s⁻¹

B27: E002.4 (VHH)
VHH: EVQLVESGGGLVQPGGSLRLSCAASGFTFSDYAVSWYRQAPGKEREFVARITGTGETSRYEDSVKGRFTISRDNSKNTAYLQMNSLRAEDTAVYYCSIYHPPRDYWGQGTQVTVSS
notes: as for B24
Kd: 11 nM
koff: 0.00045 s⁻¹
kon: 43000 M⁻¹ s⁻¹

B28: E002.7 (VHH)
VHH: EVQLVESGGGLVQPGGSLRLSCAASGFTFSDYAVSWYRQAPGKEREFVARITGTGETSRYEDSVKGRFAISRDNVKNTAYLQMNSLRAEDTAVYYCSIYHPPRDYWGQGTQVTVSS
notes: as for B24
Kd: 11 nM
koff: 0.00046 s⁻¹
kon: 40000 M⁻¹ s⁻¹

B29: E002.5 (VHH)
VHH: EVQLVESGGGLVQPGGSLRLSCAASGFTFSDYAVSWYRQAPGKEREFVARITGTGETSRYEDSVKGRFTISRDNVKNTAYLQMNSLRAEDTAVYYCSIYHPPRDYWGQGTQVTVSS
notes: as for B24
Kd: 13 nM
koff: 0.00055 s⁻¹
kon: 43000 M⁻¹ s⁻¹

From patent US20250215092A1 (ZHEJIANG NANOMAB TECHNOLOGY CENTER, published 2025)
